Test results as given in the nanobody polyreactivity screen of Harvey et al. (2022).

Test: yeast display, Sf9 membrane polyspecificity reagent, FACS + sequencing; frameworks hold sequencing errors
Summary of the method: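 Galactose-induced (36–48 hours) yeast carrying a synthetic nanobody display library were exposed to 10% biotinylated, detergent-solubilized Sf9 membrane reagent at 4 °C for 1 hour. FACS followed streptavidin microbead enrichment, using low and high (top ~1%) gates for expression (anti-HA) and reagent binding (streptavidin). Colony PCR, MiSeq 2 × 250 sequencing and CDR-length filtering followed. Labels for polyreactivity reflect the gate of origin.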

Sequence	polyreactivity (PSR sort gate)
QDQLVESGGGLVQAGGSLRLSCAASGRIFSVNAMGWYRQAPGKERELVAAISRRGTSTFYADSVKGRFTISRDNAKNTVYLQMNSLKPEDTAVYYCAADFYPYQYKFDYWGQGTQVTVSS	high polyreactivity
QDQLVESGGGLVQAGGSLRLSCAASGRLIPSYVMGGYRPAQGKETEFVAGIRRGGGSTYYADSVKGRFTISRDNAKNTVYLQMNSLKPEDTAVYYSAAVKYSRPGVYHGHDSWRQGTQVTVSS	high polyreactivity
QDQLVESGGGLVQAGGSLRLSCAASGRTFAYKVMGWYRQAPGNERELVAANSRGGGRTYYADSVKGRFTISRDNAKNTVYLQMNSLKPEDTAVYYCNAASSGLSGRLTSIINDYWGQGTQVTVSS	high polyreactivity
QDQLVESGGGLVQAGGSLRLSCAASGRTFDNYAMGWYRQAPGKERELVARITDTGGSTYYADSVKGRFTISRDNAKNTVYLQMNSLKPEDTAVYYCAADSYPFAWYWLYYYWGQGTQVTVSS	low polyreactivity
QDQLVESGGGLVQAGGSLRLSCAASGRTFGTYAMGWYRQAPGKERELVAAISSSGGRTYYADSVKGRFTISRDNAKNTVYVLMHSLKPEVTAVYYFAKSRYATQTDYNYWGQGTQVTVSS	high polyreactivity
QDQLVESGGGLVQAGGSLRLSCAASGRTFKINAMGWYRHAPGTERELVAAITYSGCTTYYADSVKGRFTISRDNAKNTVYLQMNSLKPEDTAVYYCATPSRKSGVGYPSYNYWGQGTQVTVSS	high polyreactivity
QDQLVESGGGLVQAGGSLRLSCAASGRTFLRNAMGWYRQAPGKERELVAAISRSGGSTYYADSVKGRVTISRDNAKNTVYLQMNSLKPEDTAVYYCAADDYGGYYYWGQGTQVTVSS	high polyreactivity
QDQLVESGGGLVQAGGSLRLSCAASGRTFNYNTMGWYIQAPGKERELVAAINKGGTRTYYADSVKGRFTISRDNAKNTVYLEMNSLKPEDTAVYYCAARLYSYDYWGQGTQVTVSS	high polyreactivity
QDQLVESGGGLVQAGGSLRLSCAASGRTFNYYGMGWYRQAPGKERELVAAISRGGTTNYADSVKGRFTISRDNAKNTVYLQMNSLKPEDTAVYYCAKGRSHWHSYQYVRPNYDYLGQGTQVTVSS	high polyreactivity
QDQLVESGGGLVQAGGSLRLSCAASGRTFPRNGMGWYRQAPGKERELVAAISWSGGRTYYADSVKGRFTISRDNAKNTVYLQMNSLKPEDTAVYYCNALYFRKGGYWGQGTQVTVSS	high polyreactivity
QDQLVESGGGLVQAGGSLRLSCAASGRTFTFNTMGWYRQAPGKERELVAAIVGDGTTNYADSVKGRFTISRDNAKNTVYLQMYSLKPEDTAVYYCAADFLYSFWYEPTFDYWGQGTQVTVSS	low polyreactivity
QDQLVESGGGLVQAGGSLRLSCAASGRTFTVYAMGWYRPAPGKEREMVAAISRSGGRTYYADSVKGRFTISRDNAMNTVYLQRNSLKPEDTAVYYCAADVPYRTNDFDYWGQGTQVTVSS	high polyreactivity
QDQLVESGGGLVQAGGSLRLSCAASGRTFVGYAMGWYRQAPGKERELVAAITSGGRTNYADSVKGRCTISRDNAKNTVYLQMTSLKPEDTAVYYCNARTRHRGQIALDYWGQGTQVTVSS	high polyreactivity
QDQLVESGGGLVQAGGSLRLSCAASGRTFVKYAMGWYRQAPGKERELVAAISRRGGSTYYADSVKGRFTISRDNAKNTVYLQMNSLKPEDTAVYYCAVSIGRYPYRYGYWGQGTQVTVSS	high polyreactivity
QDQLVESGGGLVQAGGSLRLSCAASGRTFYLYAMGWYSQAPGKEREFVAVINSSGGSTYYADSVKGRFTISRDNAKNTVYLQMNSLKPEDTAVYYCAAYPIPRGRDYWGPGTQVTVSS	low polyreactivity
QDQLVESGGGLVQAGGSLRLSCAASGRTYGSYAMGWYRQAPGQEMELVAAISRSDGSTYYADSVKGRFTISRDNAKNTVYLQMNSLKPEDTAVYYCAAKRWYVSYDYDYWGQGTQVTVSS	high polyreactivity
QDQLVESGGGLVQAGGSLRLSCAASGSIFLDNAMGWYRQAPGKERELVAAISKSGTRTYYADSVKGRFTISRDNAKNTVYLQMNSLKPEDTAVYYCNVVPKQAKSVELIGYYYWGQGTQVTVSS	high polyreactivity
QDQLVESGGGLVQAGGSLRLSCAASGSIFRYYAMGWYIQAPGKERELVAAITNSGGSTYYADSVKGRFTISRDNAKNTVYLQMNSLKPEDTAVYYCNARFRARPRMGYWGQGTQVTVSS	high polyreactivity
QDQLVESGGGLVQAGGSLRLSCAASGSIFTHNAMGWYRQAPGKERELVAAISSGGSTNYADSVKGRFTFSRDNAKNTVYLQMNSLKPEDTAVYYCAKSIDGWYWRRRRYDYWGQGTQVTVSS	low polyreactivity
QDQLVESGGGLVQAGGSLRLSCAASGSIFTKYAMGLYRQAPGKEREFVAAIDVNGGSTRYADSVKGRFTISRDYANNTVYLQMYSLKPEDTAVYYCAKDYTASYYPQGLYDYWGQGTQVTVSS	low polyreactivity
QDQLVESGGGLVQAGGSLRLSCAASGSIFVENDMGWYRQAPGKERELVAVITSGGSTYYADSVKGRFTISRDNAKNTVYLQMNSLKPEDTAVYYCNKDYAAIDRYDSWGQGTQVTVSS	low polyreactivity
QDQLVESGGGLVQAGGSLRLSCAASGSIFVSYTMGWYRQAPGKERELVAAITRSGGSTYYADSVKGRFTISRDNAKNTVYLQLNSLKPEDTAVYYCNATPANKYYRSTRGYAYNYWGQGTQVTVSS	low polyreactivity

Sequence	polyreactivity (PSR sort gate)
QDQLVESGGGLVQAGGSLRLSCAASGSIFVYNTMGWYRQAPGKERELVAAISSSGGSTYYADSVKGRFTISRDNAKNTVYLQMNSLKPEDTAVYYCAAVNGYQYAPYYYNGYDFWGQGTQVTVSS	low polyreactivity
QDQLVESGGGLVQAGGSLRLSCAASGSIFWSNAMGWYRQAPGKERELVASISSSGSTYYADSVKGRFTISRDNAKNTVYLQMNSLKPEDTGVYYCAAGSAYYSQRYFAYGYDSWGQGTQVTVSS	low polyreactivity
QDQLVESGGGLVQAGGSLRLSCAASGSILIHNAMGWSRQAPGKERELVAAITSGGSTNYADSVKGRFTISRDNAKNTVYLQMNSLKPEDTAVYYCATAVGRVLVGYDYWGQGTQVTLSS	low polyreactivity
QDQLVESGGGLVQAGGSLRLSCAASGSILLLNMGWYRQAPGKEMELVASIRWSGGITYYADSVKGRFTISRDNAKNTVYLQMNSLKPEDTAVYYCAARTYRYFGRYDYWGQGTQVTVSS	high polyreactivity
QDQLVESGGGLVQAGGSLRLSCAASGSILVRNARGWYRQAPGKERELVASIDSGTSTNYADSVKGRFTISRDNAKTTVYLQLNSLKPEDTAVYYCAADWYYLWGRYYFWGQGTQVTVSS	high polyreactivity
QDQLVESGGGLVQAGGSLRLSCAASGSISWVYSMGWYRQAPGKEREFVAAISESGDTYYADSVKGRFTISRDNAKNTVYLQMNSLKPEDTAVYYCAATSPDGVTYDYWGHGTQVTVSS	low polyreactivity
QDQLVESGGGLVQAGGSLRLSCAASGSTFFGNAMGWSRQAPGKERELVAAISRGGGSTYYADSVKGRLTISRDNAKNTVYLQMNCLKPEDTAVYYCNADDPWTGTAVSTPNDSWGQGTQVTVSS	low polyreactivity
QDQLVESGGGLVQAGGSLRLSCAASGSTFKYYAMGWYRQAPGKERELVAAISWTGGSTYYADSVKGRFTISRDNAKNTVYLQMNSLKPEDTAVYYCNAMGHVQGYDYWGQVTQVTVSS	high polyreactivity
QDQLVESGGGLVQAGGSLRLSCAASGSTFPKYAMGWYRQAPGKERELVASISVTTGSTYYADSVKGRFTISRDNAKNTVYLQMNSLKPEDTAVYYCPKRTYSRKFRGAYNYWGQGTQVTVSS	high polyreactivity
QDQLVESGGGLVQAGGSLRLSCAASGSTFPNNAMGWYREAPGKERELVATITTGGSTYYADSVKGRFTISRDNAKNTVYLQMNSLKPEDTAVYYCAADHLSYRRRYEYWGQGTQVTVSS	low polyreactivity
QDQLVESGGGLVQAGGSLRLSCAASGSTFVPNAMGWYRQAPGKERELVAVISDSGVTTYYADSVKGRFTISRDNAKNTVYLQMNSLKPEDTAVYYCAARQDTWDAYLSTGEFDYWGQGTQVTVSS	high polyreactivity
QDQLVESGGGLVQAGGSLRLSCAASGSTLNGNAMGWYRQAPGKERELVAAITTSGGSTYYADSVKGRFTISRDNAKNTVYLQMNSLKPEDTAVYYCNKLIGRRYGWANGYDYWGQGTQVTVSS	low polyreactivity
QDQLVESGGGLVQAGGSLRLSCAASGSTVYFNAMGWYRPAPGKERELVASITSGGSTNYADSVKGRFTISRDNAKNTVYLQMNCLKPEDTAVYYCAAGLYLQGPLDYWGQGTQVTVSS	low polyreactivity
QDQLVESGGGLVQAGGSLRLSCAASGTIFFGYSMGSYRQAPGKERDLVASISSADTTYYADSVKGRFTISRDNAKNTVYLQMNSLKPEDTAVYYCAAREGQLWEDGDYWGQGTQVTVSS	low polyreactivity
QDQLVESGGGLVQAGGSLRLSCAASVSTFILNAMGWYRQAPGKERELVATISSSDTSTYYADSVKGRFTISRDNAKNTVYLQMNSLKPEDTAVYYCNADYYTTSYLQRVYHYGVEYDYWGQGTQVTVSS	low polyreactivity
QDQLVESGGGLVQAGGSLRLSCAAYGSILGGNAMGWYRPAPGKERELVAAITFSGGGTYYADSVKGRFTISRDNAKNTVYLQMNSMKPEDTAVYYCAADKDGYTYEFDYWGQGTQVTVSS	low polyreactivity
QDQLVESGGGLVQAGGSLRLSCAPSGFIFSNYAMGWYRHGPGKERELVAAISFTGSNTYYADSVKGRFTISRDYAKNTVYLKMNSLKPEDTAVYFCNAPLEWGVYAAQNWDEGYWGQGSQVTVSS	low polyreactivity
QDQLVESGGGLVQAGGSLRLSCASSGFTFSKNAMGWYRQAPGKERELVAAISRGGGRTYYADSVKGRFTISRDNAKNTVYLQMNSLKPEDTAVYYCNVEKVGPGYDYWGQGTQVTVSS	high polyreactivity
QDQLVESGGGLVQAGGSLRLSCASSGLIFYTSSMGWYSQAPGKESGLVAAITRSDSSTYYADSVKGRFTISRDNATNTVYLQMTSLKPEDPAVYYFATPSVFLFSEYDYWGQGTKVTVSS	low polyreactivity
QDQLVESGGGLVQAGGSLRLSCASSGYIFYYNAMGWYRQAPGKEWELVAAITGDSGTYYADSVKGRFTISRDNAKNTFYFQMNCLKPEDTAVYYCNAYTFYQYYRWYVYWGQVTQVTVSS	low polyreactivity
QDQLVESGGGLVQAGGSLRLSCDASGSIFRYYTMGWYRQAHGQERELVARISYSGGRTYYAVSVKGRFTISRDNAKNTVYLQMNSLKPEDTAVYYCNTVTRWVGKLEYWGHGTQVTVSS	high polyreactivity
